Reference: US20260055141A1, “COMPOSITIONS AND METHODS FOR CONTROLLING FOOD INTAKE, ENERGY EXPENDITURE, AND BODY WEIGHT FOR THE TREATMENT OF OBESITY AND METABOLIC DISEASES” (The Trustees of the University of Pennsylvania, priority 2022, published 2026)
No end group written: not given here.

Experiments:
[1] = biological target: T1, human GPR75 (372-540 aa region), His-tagged (human, UniProt O95800 372-540); experiment: SPR (Nicoya OpenSPR), His-tagged GPR75 on NTA sensor, one-to-one fit; curve at 92.4 µM
T1 construct: range 372-540; also called G-Protein Receptor 75; not shown: His tag

[2] = biological target: T1, human GPR75 (372-540 aa region), …; experiment: SPR (Nicoya OpenSPR), His-tagged GPR75 on NTA sensor, one-to-one fit; curve at 49.3 µM
[3] = biological target: T1, human GPR75 (372-540 aa region), …; experiment: SPR (Nicoya OpenSPR), His-tagged GPR75 on NTA sensor, one-to-one fit; curve at 4.93 µM
[4] = biological target: T1, human GPR75 (372-540 aa region), …; experiment: SPR (Nicoya OpenSPR), His-tagged GPR75 on NTA sensor, one-to-one fit; curve at 12.3 µM
[5] = biological target: T1, human GPR75 (372-540 aa region), …; experiment: SPR (Nicoya OpenSPR), His-tagged GPR75 on NTA sensor, one-to-one fit; second curve at 12.3 µM
[6] = biological target: T1, human GPR75 (372-540 aa region), …; experiment: SPR (Nicoya OpenSPR), His-tagged GPR75 on NTA sensor, one-to-one fit; second curve at 49.3 µM
[7] = biological target: T1, human GPR75 (372-540 aa region), …; experiment: SPR (Nicoya OpenSPR), His-tagged GPR75 on NTA sensor, one-to-one fit; curve at 24.65 µM
[8] = biological target: T1, human GPR75 (372-540 aa region), …; experiment: SPR (Nicoya OpenSPR), His-tagged GPR75 on NTA sensor, one-to-one fit; curve at 123.23 µM
[9] = biological target: T1, human GPR75 (372-540 aa region), …; experiment: SPR (Nicoya OpenSPR), His-tagged GPR75 on NTA sensor, one-to-one fit; curve at 4.9 µM

Measured: koff

T1 sequence (O95800 372-540 limits assumed): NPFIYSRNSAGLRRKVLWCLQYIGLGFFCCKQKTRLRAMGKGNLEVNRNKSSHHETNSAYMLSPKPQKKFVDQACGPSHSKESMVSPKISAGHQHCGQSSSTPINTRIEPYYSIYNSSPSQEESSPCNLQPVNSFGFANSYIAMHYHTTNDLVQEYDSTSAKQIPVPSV

B1: SU75-37 (peptide)
peptide: TFTSDLSKYLEEEVREFIWLKNGGPSDVNTDRPGLLDLK-NH2
notes: Synthetic, non-naturally occurring peptide; also called Drug37; SUODN37
0.0141 s⁻¹: all assays above
